Measured values reported in US20190359663A1.

Key:
[1] = molecular target: L-FABP bound to arachidonic acid (human) (UniProt P07148); assay: sandwich ELISA; L-FABP stored at 37 C for two weeks in BSA-containing buffer; sample stored at 4 C = 100 (FIG. 19)
[2] = molecular target: wild type human L-FABP protein (liver-type fatty acid-binding protein) (human) (UniProt P07148); assay: as above
[3] = molecular target: L-FABP bound to oleic acid (human) (UniProt P07148); assay: sandwich ELISA; L-FABP stored at 37 C for two weeks in BSA-containing buffer; sample stored at 4 C = 100 (FIG. 20)
[4] = molecular target: wild type human L-FABP protein (liver-type fatty acid-binding protein) (human) (UniProt P07148); assay: as above
[5] = molecular target: L-FABP M19L/M74L/M113L (human) (UniProt P07148); assay: ELISA (kit not named in this example); OD ratio with and without oxidation treatment with 10 mM AAPH for 1 h at 25 C; FIG. 21
[6] = molecular target: L-FABP WT treated with 0.5 mM AAPH (human) (UniProt P07148); assay: as above
[7] = molecular target: L-FABP WT treated with 4 mM AAPH (human) (UniProt P07148); assay: as above
[8] = molecular target: wild type human L-FABP protein (liver-type fatty acid-binding protein) (human) (UniProt P07148); assay: as above
L-FABP M19L (human) = L-FABP M19L (human) (UniProt P07148); assay: ELISA (kit not named in this example); OD ratio with and without oxidation treatment with 10 mM AAPH for 1 h at 25 C; FIG. 23
[9] = molecular target: L-FABP M19L/M113L (human) (UniProt P07148); assay: as above
[10] = molecular target: L-FABP M19L/M74L/M113L (human) (UniProt P07148); assay: as above
[11] = molecular target: L-FABP WT treated with 0.5 mM AAPH (human) (UniProt P07148); assay: as above
[12] = molecular target: L-FABP WT treated with 4 mM AAPH (human) (UniProt P07148); assay: as above
[13] = molecular target: L-FABP bound to arachidonic acid (human) (UniProt P07148); assay: as above
[14] = molecular target: L-FABP bound to oleic acid (human) (UniProt P07148); assay: as above
[15] = molecular target: wild type human L-FABP protein (liver-type fatty acid-binding protein) (human) (UniProt P07148); assay: as above
[16] = molecular target: L-FABP that had been oxidation-treated with 40 mM AAPH (human) (UniProt P07148); assay: sandwich ELISA (RENAPRO L-FABP Test TMB); L-FABP stored at 37 C, measured every week for two weeks; sample stored at 4 C = 100
[17] = molecular target: wild type human L-FABP protein (liver-type fatty acid-binding protein) (human) (UniProt P07148); assay: as above
[18] = molecular target: L-FABP M19L/M74L/M113L (human) (UniProt P07148); assay: sandwich ELISA (RENAPRO L-FABP test TMB); L-FABP reacted with 0 to 5 mM AAPH for 1 h at room temperature with BSA; untreated sample = 100
[19] = molecular target: wild type human L-FABP protein (liver-type fatty acid-binding protein) (human) (UniProt P07148); assay: as above
[20] = molecular target: L-FABP M19L/M74L/M113L (human) (UniProt P07148); assay: sandwich ELISA (RENAPRO L-FABP Test TMB); L-FABP stored at 25 C with BSA, measured every week for four weeks; sample stored at -80 C = 100
[21] = molecular target: wild type human L-FABP protein (liver-type fatty acid-binding protein) (human) (UniProt P07148); assay: as above
[22] = molecular target: L-FABP M19L/M74L/M113L (human) (UniProt P07148); assay: sandwich ELISA (RENAPRO L-FABP Test TMB); L-FABP stored at 37 C with BSA, measured every week for four weeks; sample stored at -80 C = 100
[23] = molecular target: wild type human L-FABP protein (liver-type fatty acid-binding protein) (human) (UniProt P07148); assay: as above
[24] = molecular target: L-FABP M19L/M74L/M113L (human) (UniProt P07148); assay: sandwich ELISA (RENAPRO L-FABP Test TMB) with 1 mass % BSA; oleic acid added to L-FABP at various concentrations, 1.5 h room temperature; untreated sample = 100
[25] = molecular target: wild type human L-FABP protein (liver-type fatty acid-binding protein) (human) (UniProt P07148); assay: as above
[26] = molecular target: L-FABP M19L/M74L/M113L (human) (UniProt P07148); assay: sandwich ELISA (RENAPRO L-FABP Test TMB) with 1 mass % BSA; arachidonic acid added to L-FABP at various concentrations, 1.5 h room temperature; untreated sample = 100
[27] = molecular target: wild type human L-FABP protein (liver-type fatty acid-binding protein) (human) (UniProt P07148); assay: as above
[28] = molecular target: L-FABP M19L/M74L/M113L (human) (UniProt P07148); assay: sandwich ELISA (RENAPRO L-FABP Test TMB) with 1 mass % BSA; 8-iso-prostaglandin F2α added to L-FABP at various concentrations, 1.5 h room temperature; untreated sample = 100
[29] = molecular target: wild type human L-FABP protein (liver-type fatty acid-binding protein) (human) (UniProt P07148); assay: as above

## labeled antibody of the sandwich ELISA kit RENAPRO L-FABP Test TMB (CMIC HOLDINGS Co., Ltd.)
[1]
  ELISA measured value, % of sample stored at 4 C: 99.9 to 100%
[2]
  ELISA measured value, % of sample stored at 4 C: 118 to 132%
[3]
  ELISA measured value, % of sample stored at 4 C: 100 to 110%
[4]
  ELISA measured value, % of sample stored at 4 C: 120 to 130%
[5]
  coefficient of change in oxidation (OD ratio, oxidation-treated / not treated): < 1.3
[6]
  coefficient of change in oxidation (OD ratio, oxidation-treated / not treated): < 1.3
[7]
  coefficient of change in oxidation (OD ratio, oxidation-treated / not treated): < 1.3
[8]
  coefficient of change in oxidation (OD ratio, oxidation-treated / not treated): 1.8
L-FABP M19L (human)
  coefficient of change in oxidation (OD ratio, oxidation-treated / not treated): < 1.4
[9]
  coefficient of change in oxidation (OD ratio, oxidation-treated / not treated): < 1.4
[10]
  coefficient of change in oxidation (OD ratio, oxidation-treated / not treated): < 1.4
[11]
  coefficient of change in oxidation (OD ratio, oxidation-treated / not treated): < 1.4
[12]
  coefficient of change in oxidation (OD ratio, oxidation-treated / not treated): < 1.4
[13]
  coefficient of change in oxidation (OD ratio, oxidation-treated / not treated): < 1.4
[14]
  coefficient of change in oxidation (OD ratio, oxidation-treated / not treated): < 1.4
[15]
  coefficient of change in oxidation (OD ratio, oxidation-treated / not treated): 1.8
[16]
  ELISA measured value (OD 450 nm), % of sample stored at 4 C: 94 to 102%
[17]
  ELISA measured value (OD 450 nm), % of sample stored at 4 C: 114 to 130%
[18]
  ELISA measured value (OD 450 nm), % of untreated sample: 102 to 107%
[19]
  ELISA measured value (OD 450 nm), % of untreated sample: 112 to 121%
[20]
  ELISA measured value (OD 450 nm), % of sample stored at -80 C: 101 to 111%
[21]
  ELISA measured value (OD 450 nm), % of sample stored at -80 C: 110 to 128%
[22]
  ELISA measured value (OD 450 nm), % of sample stored at -80 C: 104 to 113%
[23]
  ELISA measured value (OD 450 nm), % of sample stored at -80 C: 117 to 143%
[24]
  ELISA measured value (OD 450 nm), % of untreated sample: 92 to 107%
[25]
  ELISA measured value (OD 450 nm), % of untreated sample: 100 to 124%
[26]
  ELISA measured value (OD 450 nm), % of untreated sample: 88 to 103%
[27]
  ELISA measured value (OD 450 nm), % of untreated sample: 104 to 220%
[28]
  ELISA measured value (OD 450 nm), % of untreated sample: 96 to 101%
[29]
  ELISA measured value (OD 450 nm), % of untreated sample: 95 to 118%
